In the supplement of paper PMC10201428:
± gives the standard deviation of the averaged measurements.

B1: library; a variant is named by its letters at N, in order (parent)
chain: ACATTTGTTGATACAACCATAAAATGATAATTACACCCATAAATTGATAATTATCACACCCANNNNNNNNNNNNNNCTCTGATCATAGTCAGACCAACATTGCTACGACCCGTATTCGCACCGACAC
B2: library; a variant is named by its letters at N, in order (parent)
chain: AATGTTGTTGATGCAACCATAAAGTGATATTTAATAATTATTTATAATCAGCAACTTAACCACAAAACAACCATATATTGATATNTCACAAAACAACCATAANTTGATATTTTTGTGAATCGAGTATTTCAGCAAAACTACTGCAGTAAGAA

Experiments:
Details in all cases: with VchCAST RNA-guided transposition machinery (E. coli BL21(DE3) host, lacZ target)
[1] = variants of: B1; experiment: relative integration efficiency (T-RL orientation) vs wild-type transposon end (log2 (normalized fold change)); transposon end mutated: right end (5 bp flank + 75 bp right end); higher = more efficient transposition
Experimental: (§1)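 Pooled, barcoded VchCAST (Tn6677) mini-transposon donor libraries; each variable transposon-end sequence sits in a fixed pDonor mini-transposon context (10-bp barcode and cargo not included). Left- or right-end libraries were co-transformed with pEffector (TniQ-Cascade, TnsABC, lacZ crRNA, T7, 0.1 mM IPTG) into E. coli BL21(DE3) and grown 18 h at 37 C. T-LR and T-RL junction amplicons were sequenced; output/input barcode fold change was normalised to the mean of four wild-type barcodes and log2-transformed. Two biological replicates; zero-count/undetected variants carry floor values (-10 / -15), censored here. Barcode uncoupling by PCR recombination adds noise.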

[2] = variants of: B1; experiment: relative integration efficiency (T-LR orientation) vs wild-type transposon end (log2 (normalized fold change)); transposon end mutated: right end (5 bp flank + 75 bp right end); higher = more efficient transposition
Experimental: as §1

[3] = variants of: B2; experiment: relative integration efficiency (T-RL orientation) vs wild-type transposon end (log2 (normalized fold change)); transposon end mutated: left end; higher = more efficient transposition
Outline: (§2)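 Each barcoded pool, 1549 left-end or 1849 right-end transposon variants in a pUC57 mini-transposon donor, went into E. coli BL21(DE3) with a T7-driven effector plasmid (CRISPR array, tniQ-cas8-cas7-cas6, tnsA-tnsB-tnsC). Plates contained 0.1 mM IPTG and were held at 37°C for 18 h. Input plasmids and genomic integration junctions were PCR-amplified and read by Illumina sequencing, with two biological output replicates and four reference barcodes. Relative integration efficiency is the fold change of output over input barcode abundance, normalised to the reference barcodes and log-transformed.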

[4] = variants of: B2; experiment: relative integration efficiency (T-LR orientation) vs wild-type transposon end (log2 (normalized fold change)); transposon end mutated: left end; higher = more efficient transposition
Outline: as §2

| Variant | relative integration efficiency (log2) [1] | relative integration efficiency (log2) [2] | relative integration efficiency (log2) [3] | relative integration efficiency (log2) [4] |
| --- | --- | --- | --- | --- |
| TAAATTGATAGTGC | -0.0439 ± 0.022 | 0.754 ± 0.013 |  |  |
| TAAATTGATATTGC A13C | -0.236 ± 0.083 | -0.613 ± 0.75 |  |  |
| TAAATTAATATTGC | -0.319 ± 0.15 | 1.63 ± 0.083 |  |  |
| ATTTAACTATAACG T9C | -0.756 ± 0.26 | 2.493 ± 0.0031 |  |  |
| ATTTAACTATAACG C55G | -1.37 ± 0.28 | 2.381 ± 0.011 |  |  |
| TAAATTGATATTGC A43G | -0.0412 ± 0.15 | -0.246 ± 0.17 |  |  |
| TAAATTGATATTGC A43C | -0.127 ± 0.027 | -0.0895 ± 0.24 |  |  |
| TAAATTGATATACC | -0.223 ± 0.13 | 0.207 ± 0.58 |  |  |
| ATTTAACTATAACG A16G | -1.04 ± 0.027 | 2.09 ± 0.17 |  |  |
| ATTTAACTATAACG A16T | -0.779 ± 0.2 | 2.59 ± 0.066 |  |  |
| ATTTAACTATAACG A16C | -1.24 ± 0.14 | 2 ± 0.11 |  |  |
| ATTTAACTATAACG C38G | -0.843 ± 0.15 | 2.06 ± 0.035 |  |  |
| TAAATTGATAAAGC | -0.251 ± 0.025 | 0.6224 ± 0.0024 |  |  |
| ATTTAACTATAACG T40C | -1.72 ± 0.32 | 1.196 ± 0.0054 |  |  |
| ATTTAACTATAACG T40G | -2.18 ± 0.11 | 0.496 ± 0.47 |  |  |
| ATTTAACTATAACG A42T | -0.805 ± 0.085 | 2.24 ± 0.14 |  |  |
| ATTTAACTATAACG A42G | -1.62 ± 0.22 | 1.19 ± 0.16 |  |  |
| TAAATTGATATTGC C18G | -0.199 ± 0.036 | -0.152 ± 0.14 |  |  |
| ATTTAACTATAACG A19C | -1.84 ± 0.3 | 1.06 ± 0.42 |  |  |
| ATTTAACTATAACG A19T | -1.53 ± 0.24 | 2.1 ± 0.09 |  |  |
| TAAATTGATATTGC A33C | 0.00253 ± 0.071 | 0.14 ± 0.18 |  |  |
| TAAATTGATATTGC A33G | 0.137 ± 0.055 | -0.127 ± 0.057 |  |  |
| TAAATTGATATCGC | 0.0222 ± 0.012 | -0.0692 ± 0.048 |  |  |
| TAAATTGATATTGC A56G | -0.248 ± 0.083 | 0.362 ± 0.33 |  |  |

| Variant | relative integration efficiency (log2) [1] | relative integration efficiency (log2) [2] | relative integration efficiency (log2) [3] | relative integration efficiency (log2) [4] |
| --- | --- | --- | --- | --- |
| TAAATTGATATTGC A56C | -0.0165 ± 0.22 | 0.317 ± 0.21 |  |  |
| ATTTAACTATAACG A62C | -1.03 ± 0.27 | 2.22 ± 0.21 |  |  |
| ATTTAACTATAACG A56T | -0.909 ± 0.39 | 2.57 ± 0.2 |  |  |
| TGAATTGATATTGC | -0.596 ± 0.095 | 1.91 ± 0.29 |  |  |
| ATTTAACTATAACG T31C | -0.932 ± 0.22 | 2.62 ± 0.071 |  |  |
| TAAATTTATATTGC | -0.361 ± 0.18 | 1.7 ± 0.14 |  |  |
| TAAATTGATATGTA C77A | -0.158 ± 0.089 | 0.332 ± 0.19 |  |  |
| ATTTAACTATAACG A53C | -1.32 ± 0.33 | 2.49 ± 0.26 |  |  |
| ATTTAACTATAACG A53G | -1.38 ± 0.34 | 2.239 ± 0.0053 |  |  |
| TAAATTGATATTGC A22G | -0.771 ± 0.018 | -1.09 ± 0.47 |  |  |
| TAAATTGATATTAC | -0.14 ± 0.1 | 0.0276 ± 0.11 |  |  |
| AAAATTGATATTGC A62T | -0.47 ± 0.19 | 1.67 ± 0.025 |  |  |
| TAAATTGATATTGC T44C | -0.0775 ± 0.082 | -0.274 ± 0.09 |  |  |
| TAAATTGATATTGC T44A | 0.0685 ± 0.021 | -0.0417 ± 0.00085 |  |  |
| TAAATTGATAATTA | 0.000518 ± 0.059 | 0.0298 ± 0.42 |  |  |
| CG T42A A44T C49A G51T C52T C55T A59T C60A C61T C63T A64T A65T |  |  | -2.87 ± 0.52 |  |
| CG A19C T20G A21C A22C |  |  | -3.48 ± 1.4 |  |
| CG T20G T74G T100G |  |  | -6.64 ± 1.3 |  |
| CG G10C A11T T12A G13C |  |  | -0.736 ± 0.86 |  |
| CG G7C T8A |  |  | -6.52 ± 0.12 |  |
| CG T104G |  |  | -0.0872 ± 0.27 | -0.2 ± 0.48 |
| CG C49G A50T C52A A53T C55A T56C T57A A59T C61A A62C C63A A64G |  |  | -3.37 ± 1.4 |  |
| CG A81G |  |  | -0.449 ± 0.27 | -0.37 ± 0.32 |
| CG A19C A73C A99C |  |  | -6.27 ± 1.8 |  |

| Variant | relative integration efficiency (log2) [1] | relative integration efficiency (log2) [2] | relative integration efficiency (log2) [3] | relative integration efficiency (log2) [4] |
| --- | --- | --- | --- | --- |
| CG T41A A44G A46G T48G A50G C52A A53T C55A T56C T57A A59T C60T |  |  | -4.27 ± 0.75 |  |
| CG T6A G7C |  |  | -6.27 ± 0.56 |  |
| CT A21C A22C A23C G24T A75C T76G A77C T78G A101C A102C T104G |  |  | -7.99 ± 1.6 |  |
| CG T8G T9G G10T A11C |  |  | -7.43 ± 0.35 |  |
| CG T45C A46T A47T C49T A50G C52T A53T T56A A59T C60T |  |  | -6.51 ± 2 |  |
| CG T3A G4C T5A T6A |  |  | -6.84 ± 0.4 |  |
| CG C55A T56G T57G A58C |  |  | -2.14 ± 0.62 |  |
| CG T48A C49T A50T C52T A53G C55G T56C T57G A58G C60T C61A A66T A67T |  |  | -4.31 ± 0.86 |  |
| CG T6G G7T |  |  | -9.04 ± 0.91 |  |
| CG T6A G7C T8A T9A |  |  | -6.58 ± 0.36 |  |
| CG T5A T6A G7C T8A |  |  | -7.12 ± 1.1 |  |
| CG T82A |  |  | -0.103 ± 0.77 |  |
| CG T8G T9G |  |  | -6.84 ± 0.88 |  |
| CG T6G |  |  | -7.013 ± 0.063 |  |
| CG T38C A40G T42A A44T A47T T48A C49T G51C C52A A53G A54T C55T T56G |  |  | -5.99 ± 0.93 |  |
| TA A16C G24T T30A T76A T78A T84A C87A A102T T111C T113C |  |  | -0.415 ± 0.32 | -0.306 ± 1.3 |
| CG G4C T5A T6A G7C |  |  | -7.62 ± 0.39 |  |
| CG A22C T76G A102C |  |  | -3.7 ± 1.5 |  |
| CG C71T |  |  | -0.408 ± 0.23 | -0.49 ± 0.49 |
| CG A33C C87A T113G |  |  | -0.0603 ± 0.021 | 0.0172 ± 0.12 |
| CG G7T T8G T9G G10T |  |  | -7.84 ± 0.54 |  |
| CG A44G T45C A47T T48A C49A G51A C52A A53T A54T T56A A58C |  |  | -6.6 ± 1.8 |  |
